Oregon Green 514 = pentafluorofluorescein derivative
B1: peptide A (36-mer derived from the C-terminus of HSV Pol) (peptide)
peptide: DDVAARLRTAGFGAVGAGATAEETRRMLHRAFDTLA
notes: also called 36-mer peptide A; unlabeled peptide A
B2: Oregon Green 514-labeled peptide E (18 C-terminal amino acids of HSV Pol) (peptide)
peptide: {Oregon Green 514}-ATAEETRRMLHRAFDTLA-NH2
notes: also called Oregon Green-peptide E; labeled tracer

How the values were obtained:
[1] = target: T1, MBP-UL42Δ340 (truncated UL42 processivity subunit of HSV DNA polymerase as maltose binding protein fusion) (herpes simplex virus, UniProt P10226 1-339, N-terminal MBP fusion, not carried in the letters); experiment: fluorescence polarization competition; peptide A displaces labeled peptide E from 7 µM UL42, Hill equation
T1 construct: Expressed in E. coli BL21(de3)pLysS and purified over amylose; also called wt UL42; HSV MBP-UL42
T1 sequence: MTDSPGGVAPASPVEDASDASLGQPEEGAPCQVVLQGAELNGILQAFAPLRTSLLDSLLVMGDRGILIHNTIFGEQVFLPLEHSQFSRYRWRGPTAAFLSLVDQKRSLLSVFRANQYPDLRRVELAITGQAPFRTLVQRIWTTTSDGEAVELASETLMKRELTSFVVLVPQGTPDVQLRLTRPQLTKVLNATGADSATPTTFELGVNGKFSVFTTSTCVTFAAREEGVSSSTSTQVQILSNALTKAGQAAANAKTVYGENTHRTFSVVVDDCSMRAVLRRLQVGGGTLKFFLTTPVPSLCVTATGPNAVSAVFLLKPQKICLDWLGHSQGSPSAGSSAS

[2] = target: T1, MBP-UL42Δ340 (truncated UL42 …); experiment: fluorescence polarization; MBP-UL42 titrated (1 to 50 µM) into 1 nM labeled peptide, Hofstee transformation

Binder | IC50 [1] [µM] | Kd [2] [µM]
B1 | ~6 | 
B2 |  | 5
